For this test, the system named is noise-induced hearing loss mouse model. The test can be described thus: Noise-induced hearing loss mouse model, first antibody dose one day prior to noise exposure. It counts as in vivo. On the procedure:
FIGS. 6A, 6B, 6C, 6D, and 6E show the therapeutic effect of FAM19A5 antagonists on auditory brainstem response (ABR) threshold in a noise-induced hearing loss mouse model. FIG. 6A provides a schematic of the experimental design. As shown, anti-FAM19A5 antibody (1-30) or control human IgG antibody was administered to the mice intravenously once a week (30 mg/kg per dose) for a total of five administrations. The first dose of the antibodies was administered one day before noise exposure. For noise-induced hearing loss induction, the animals were subjected to temporary threshold shift (TTS) of 105 decibels for 30 minutes. ABR (i.e., hearing test) was measured both prior to the initial administration of the antibodies and then at various times after administration. FIGS. 6B, 6C, 6D, and 6E provide comparison of ABR threshold between mice administered with the control human IgG (circle), anti-FAM19A5 antibody (square), or before noise (triangle) at the following time points: (i) before TTS exposure, (ii) 1 day after TTS exposure, (iii) 2 weeks after TTS exposure, (iv) 4 weeks after TTS exposure, and […], respectively. ABR threshold was measured at a frequency ranging from 4 kHz to 64 kHz.
FIGS. 7A, 7B, 7C, and 7D show the therapeutic effect of FAM19A5 antagonists on distortion product […] emission (DPOAE) threshold in a noise-induced hearing loss mouse model. The overall experimental design is the same as that described in FIG. 6A. DPOAE threshold data was measured after antibody administration and: (i) before TTS exposure (FIG. 7A), (ii) 1 day after TTS exposure (FIG. 7B), (iii) 2 weeks after TTS exposure (FIG. 7C), and (iv) 4 weeks after TTS exposure (FIG. 7D). DPOAE threshold was measured at a frequency ranging between about 4 kHz to about 32 kHz.
FIGS. 8A and 8B show the effect of FAM19A5 antagonists on distortion product […] emission (DPOAE) amplitude in a noise-induced hearing loss mouse model. The overall experimental design is the same as that described in FIG. 6A. DPOAE amplitude data was measured after antibody administration at 2 weeks after TTS exposure. FIG. 8A provides a comparison of the average DPOAE amplitude value as a function of different noise level for the following groups: (i) before noise (triangle), (ii) control antibody treated (circle), and (iii) anti-FAM19A5 treated (square). FIG. 8B provides a spectral level profile for each of the groups.
FIGS. 11A and 11B show the effect of FAM19A5 antagonists on ABR I/O function in a noise-induced hearing loss mouse model. The overall experimental design is the same as that described in FIG. 6A. FIG. 11A provides wave I amplitude before noise (left graph) and at 2 weeks after noise (right graph).
FIG. 11B provides wave I amplitude at 4 weeks after noise. For each of FIGS. 11A and 11B, the following groups of animals are shown: (i) control antibody treated (circle) and (ii) anti-FAM19A5 antibody treated (square). For comparison purposes, wave I amplitude before noise exposure is also provided at the 2 weeks and 4 weeks timepoints (“BN”).
FIGS. 12A and 12B provide immunohistochemistry (IHC) analysis of the therapeutic effects of anti-FAM19A5 antibody (1-30) and control human IgG antibody administration in the middle cochlear region 8 weeks after temporary threshold shift (TTS) (i.e., noise induction).
To assess whether the FAM19A5 antagonists described herein can treat hearing loss, a noise-induced hearing loss mouse model was used. Briefly, for hearing loss induction, the animals were exposed to a temporary threshold shift (TTS) of 105 decibels for 30 minutes. An anti-FAM19A5 antibody (1-30 antibody) or a control human IgG antibody was intravenously administered to C57BL/6 mice (8 weeks old) once weekly for 5 total administrations (30 mg/kg per dose). […] To assess the effect on hearing loss, ABR threshold, DPOAE threshold, and/or DPOAE amplitude were measured at various time points (see “hearing test” in FIG. 6A). […]

B1: 1-30: anti-FAM19A5 antibody, de-immunized variant of 3-2; VH SEQ ID NO: 235, VL SEQ ID NO: 240 (antibody, V domains shown)
VH: AVTLDESGGGLQTPGGALRLSCKASGFDFESFNMFWVRQAPGKGLEYVSQISSSEEDENYAPAVKGRATISRDNGQSTLYLQMNSLRAEDTGTYYCAKSSYDCPYGHCSSGVDSAGEIDAWGHGTEVIVSS
VL: ALTQPSSVSANPGETVKITCSGGGSEEEQYYYGWYQQKPGSAPVTLIYQDEERPSDIPSRFSGSTSGSTATLTITGVQAGDEADYYCGSWDSEDEDHFGAGTTLTVL
modifications: Low-PI VH, 1-30 VH, 1-17 VH, 1-32 VH, 4-11 VH, 6-10 VH; 1-30 VL
B1: the “DPOAE amplitude vs control antibody” value (2 weeks after TTS exposure, about 18 kHz frequency) is reported as “higher DPOAE amplitude”. The “number of ribbon bodies per cell in IHC and OHC vs hIgG” value (8 weeks after TTS) is on record as “increased number of ribbon bodies per cell”. The “ABR threshold values vs values prior to TTS exposure” value (all time points assessed after TTS, 30 mg/kg i.v. weekly x5, first dose one day before noise) is on record as “comparable to corresponding values prior to the TTS exposure”. Besides, the “DPOAE threshold values vs control IgG antibody” value (before and 1 day, 2 weeks, 4 weeks after TTS, 30 mg/kg i.v. weekly) is “no noticeable differences”. Where the note is “day 1 post TTS (105 dB, 30 min), 30 mg/kg i.v. weekly x5, first dose one day before noise”, the “increase in ABR threshold after TTS exposure, vs control antibody” value is listed as “much more dramatic in animals treated with the control antibody”. Further, the “ABR wave I amplitude vs control antibody” value is, setting by setting: (four weeks post noise exposure) “noticeable differences were observed”; (two weeks post noise exposure) “noticeable differences were observed”. The “expression of CtBP2 (cochlear ribbon synapse marker) in the IHC vs control antibody” value (middle cochlear region, 8 weeks after TTS) is “noticeable increase”.
